Measurements published in paper PMC9909341, “TLQP-21 is a low potency partial C3aR activator on human primary macrophages” (Frontiers in Immunology, 2023).
Like-named read-outs stand apart in the source and are kept apart here.

T1: human C3aR (Homo sapiens, UniProt Q16581)
T1 sequence (Q16581 1-482): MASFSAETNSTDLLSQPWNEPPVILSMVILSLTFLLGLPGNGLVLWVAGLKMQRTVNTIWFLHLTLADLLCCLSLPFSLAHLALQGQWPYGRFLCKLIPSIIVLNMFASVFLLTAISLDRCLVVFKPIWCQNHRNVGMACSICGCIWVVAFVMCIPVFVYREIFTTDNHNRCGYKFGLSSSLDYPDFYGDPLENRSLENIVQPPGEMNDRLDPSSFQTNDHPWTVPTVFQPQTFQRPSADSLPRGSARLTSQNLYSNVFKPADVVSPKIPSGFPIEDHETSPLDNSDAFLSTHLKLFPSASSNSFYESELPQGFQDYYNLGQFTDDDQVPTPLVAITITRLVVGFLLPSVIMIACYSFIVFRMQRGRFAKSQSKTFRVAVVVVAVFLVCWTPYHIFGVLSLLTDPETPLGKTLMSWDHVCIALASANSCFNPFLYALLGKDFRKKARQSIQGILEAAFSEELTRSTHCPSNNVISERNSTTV

T2: Human complement C3a receptor, endogenous on human monocyte-derived macrophages (human (endogenous in HMDMs)) (UniProt Q16581)
T2 sequence: T1 sequence (Q16581 1-482)

T3: Human complement C3a receptor, stably expressed on CHO cells (human) (UniProt Q16581)
T3 sequence: T1 sequence (Q16581 1-482)

T4: Murine complement C3a receptor, endogenous on mouse bone marrow-derived macrophages (mouse (endogenous in BMDMs)) (UniProt O09047)
T4 sequence: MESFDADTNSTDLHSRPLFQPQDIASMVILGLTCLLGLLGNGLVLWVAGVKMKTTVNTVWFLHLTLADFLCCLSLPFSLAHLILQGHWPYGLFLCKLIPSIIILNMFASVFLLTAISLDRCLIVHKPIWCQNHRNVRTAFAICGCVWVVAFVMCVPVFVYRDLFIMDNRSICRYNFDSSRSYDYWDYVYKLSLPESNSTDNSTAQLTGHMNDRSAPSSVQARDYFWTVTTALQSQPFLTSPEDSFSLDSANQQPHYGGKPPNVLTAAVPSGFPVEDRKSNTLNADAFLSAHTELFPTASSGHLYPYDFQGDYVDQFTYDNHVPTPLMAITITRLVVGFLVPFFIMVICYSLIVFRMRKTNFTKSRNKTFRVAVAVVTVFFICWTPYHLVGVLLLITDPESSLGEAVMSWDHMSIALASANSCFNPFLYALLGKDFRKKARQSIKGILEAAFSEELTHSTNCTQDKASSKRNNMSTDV


What was measured:
[1] = system: HMDM (endogenous human C3aR); assay type: cell-based; conditions: 10 min stimulation at RT, n = 4 donors
From the text: HMDMs were generated and cultured as previously described ([20]), with experiments approved by The University of Queensland Human Research Ethics Committee. Briefly, human buffy coat blood from anonymous healthy donors was obtained through the Australian Red Cross Blood Service (Brisbane, Australia). Human CD14+ monocytes were isolated from blood using Lymphoprep density centrifugation (STEMCELL, Melbourne, Australia) followed by CD14+ MACS magnetic bead separation (Miltenyi Biotec, Sydney, Australia). The isolated monocytes were differentiated for 7 days in Iscove’s Modified Dulbecco’s Medium supplemented with 10% FBS, 100 IU/ml penicillin, 100 μg/ml streptomycin and 15 ng/ml recombinant human macrophage colony stimulating factor (BioLegend, San Diego, USA) on 10 mm square dishes (Bio-strategy, Brisbane, Australia). Non-adherent cells were removed by washing with DPBS, and the adherent differentiated HMDMs were harvested by gentle scraping.
(§1) Ligand-induced ERK1/2 phosphorylation was assessed using the AlphaLISA Surefire Ultra p-ERK1/2 (Thr202/Tyr204) kit (PerkinElmer, Melbourne, Australia) following the manufacturer’s protocol as previously described ([18], [20], [22]). Briefly, CHO-K1, CHO-C3aR, CHO-C5aR1, HMDMs (50,000/well) or BMDMs (90,000/well) were seeded in tissue culture-treated 96-well plates (Corning, Corning, USA) for 24 h and serum-starved overnight. All ligand dilutions were prepared in serum-free medium (SFM) containing 0.1% BSA. For inhibition assays, cells were pre-treated with the following ligands (5 µM SB290157, or respective concentrations of hC3a, mC3a, hC5a, hTLQP-21, and mTLQP-21) or the solvent-only control for 30 min before agonist (hC3a, hTLQP-21 and mTLQP-21) addition. The concentration and identity of the ligands are described in detail in the figure legends. For stimulation, cells were treated with ligands at the indicated concentrations for 10 min at RT and then immediately lysed using AlphaLISA lysis buffer on a microplate shaker (450 rpm, 10 min). For the detection of phospho-ERK1/2 content, cell lysate (5 μL/well) was transferred to a 384-well ProxiPlate (PerkinElmer, Melbourne, Australia) and added to the donor and acceptor reaction mix (2.5 μL/well, respectively), followed by a 2-h incubation at RT in the dark. On a Tecan Spark 20M (Tecan, Männedorf, Switzerland), the plate was measured using standard AlphaLISA settings.
(§2) All experiments were conducted in triplicates and repeated on three separate occasions unless otherwise specified. Data was analysed using GraphPad software (Prism 9.1). Data from each individual repeat was normalised accordingly (as specified in the figure legends) before being combined and expressed as mean ± standard error of the mean (S.E.M.) unless otherwise described. For all dose-response studies, logarithmic concentration-response curves were plotted using combined data and analysed to determine the respective potency values. Statistical analysis was performed using two-way ANOVA with Dunnett’s post hoc analysis. Donor-matched comparisons were made for HMDM experiments. Differences were deemed significant when p < 0.05.
Figure 3 Agonistic and antagonistic activities of hTLQP-21 and mTLQP-21 in human monocyte-derived macrophages. Serum-starved HMDMs (50,000/well) were (A) stimulated with medium or respective ligands at the indicated concentrations for 10 min and then lysed, or (B) pre-treated with 5 µM SB290157 for 30 min prior to stimulation. (C) HMDMs were pre-treated with 10 μM hTLQP-21 or mTLQP-21 for 30 min before being stimulated with respective concentrations of human C3a. (D) HMDMs were pre-treated with 10 nM hC3a, 10 μM hTLQP-21 or mTLQP-21 for 30 min before being stimulated with the same concentrations of the above ligands for 10 min and then lysed. (E) HMDMs were pre-treated with 10 μM hTLQP-21 or mTLQP-21 for 30 min before being stimulated with respective concentrations of human C5a for 10 min and then lysed. […]

[2] = system: BMDM (murine C3aR); assay type: cell-based, mouse; conditions: wild-type C57BL/6J BMDMs, 90,000/well; 10 min stimulation at RT; AlphaLISA p-ERK1/2; n = 3 mice; C3a is recombinant mouse C3a; read-out: EC50 (pERK1/2), BMDM
Protocol: Mouse bone marrow-derived macrophages (BMDMs) were obtained and cultured as previously described ([20], [21]). All experiments using mice were approved by the University of Queensland animal ethics committee. Wild-type and C3aR^-/- mice on a C57BL/6J genetic background (n = 3) were sacrificed by cervical dislocation. The tibia was removed and sterilised. Upon removal of both epiphyses, bone marrow cells were harvested by flushing the central cavity with complete RPMI-1640 medium using a 10 ml syringe attached to a 25-gauge needle. Cells were then cultured in complete RPMI-1640 medium (containing 10 % FBS, 100 IU/ml penicillin, 100 μg/ml streptomycin) supplemented with 100 ng/ml recombinant human macrophage colony stimulating factor on 10 mm square dishes. Mature adherent macrophages for assays were harvested on day 6-7 by gentle scraping.
as §1, §2
Figure 4 TLQP-21 triggers ERK signalling through C3aR in murine bone marrow-derive macrophages. BMDMs (90,000/well) from wildtype mice (A) or with C3aR knockout mice (B), were serum-starved overnight and then stimulated with respective ligands at the indicated concentrations for 10 min. The phospho-ERK1/2 content in the cell lysate was measured and normalised to the medium only-treated levels before being combined. Data represent mean ± S.E.M. of triplicate measurements using cells from 3 mice (n = 3).

[3] = target: T1, human C3aR; assay: phospho-ERK1/2 assay in CHO-C3aR cells; assay type: cell-based; conditions: efficacy relative to hC3a; fold baseline normalised; n = 3-4
Protocol: Cell lines for this study were cultured as previously described ([20]). Non-transfected CHO-K1 cells or CHO cells stably expressing the human C3aR (CHO-C3aR; Product # ES-730-C, PerkinElmer, Melbourne, Australia) were maintained in Ham’s F12 medium containing 10% foetal bovine serum (FBS), 100 IU/ml penicillin and 100 μg/ml streptomycin, with additional 400 μg/ml G418 (In vivoGen, San Diego, USA) added for CHO-C3aR cell culture. HEK293 cells were maintained in DMEM medium containing 10% FBS, 100 IU/ml penicillin and 100 μg/ml streptomycin. All cell lines were maintained in T175 flasks (37°C, 5% CO2) and subcultured at 80-90% confluency using 0.05% trypsin-EDTA in DPBS.
as §1, §2
Figure 1 hTLQP-2 and mTLQP-21 activate ERK signalling in CHO-K1 and CHO-C3aR cells. hTLQP-21, mTLQP-21 and plasma-derived human C3a were tested in (A) non-transfected CHO-K1 or (B) CHO cells stably expressing human C3aR. CHO cells were serum-starved overnight and then stimulated with various ligands for 10 min before being lysed. The phospho-ERK1/2 content in the lysate was measured and expressed as fold-baseline before being combined. The maximum relative pERK1/2 activity induced by each ligand is shown in (C). Data represent mean ± S.E.M. of triplicate measurements from 3-4 independent experiments (n = 3-4). Two-way ANOVA with Dunnett’s post hoc analysis. *P < 0.05, ***P < 0.001, ****P < 0.0001. Ligand treated versus medium treated cells for each cell line.

[4] = target: T2, Human complement C3a receptor, endogenous on human monocyte-derived macrophages (human (endogenous in HMDMs))
[5] = target: T3, Human complement C3a receptor, stably expressed on CHO cells (human)
[6] = target: Endogenous C3aR of CHO-K1 cells (Chinese hamster (endogenous in CHO-K1))
[7] = target: T3, Human complement C3a receptor, stably expressed on CHO cells (human); remark: listed apart in the source
[8] = target: T2, Human complement C3a receptor, endogenous on human monocyte-derived macrophages (human (endogenous in HMDMs)); remark: listed apart in the source
[9] = target: T4, Murine complement C3a receptor, endogenous on mouse bone marrow-derived macrophages (mouse (endogenous in BMDMs))
[10] = target: T2, Human complement C3a receptor, endogenous on human monocyte-derived macrophages (human (endogenous in HMDMs)); remark: listed apart in the source

Chain of Recombinant mouse C3a (P01027 671-748): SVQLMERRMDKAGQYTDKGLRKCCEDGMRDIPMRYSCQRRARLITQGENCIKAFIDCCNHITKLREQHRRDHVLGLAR

EC50 (nM) of ERK1/2 phosphorylation in HMDMs [4] [nM] | EC50 (nM) of ERK1/2 phosphorylation in CHO-C3aR cells [5] [nM] | EC50 (nM) of ERK1/2 phosphorylation in BMDMs [9] [nM] | Molecule | EC50 [2] [nM] | also measured
 |  | 8.4 | Recombinant mouse C3a (from UniProt P01027 671-748) (ligand) |  | 
14800 | 587 | 401 | TLQPPSALRRRHYHHALPPSR [Human TLQP-21] |  | hTLQP-21 induced ERK activation in HMDMs pre-treated with the C3aR antagonist SB290157 (5 μM, 30 min), % of the control level (% of the control level) [10]: 29
2850 | 83.6 | 96.5 | TLQPPASSRRRHFHHALPPAR [Mouse TLQP-21] |  | ERK signalling in HMDMs by 10 μM mTLQP-21 under the control conditions of Figure 3B, % of the C3a induced activity (% of the C3a induced activity) [10]: 40; mTLQP-21 induced ERK activation in HMDMs pre-treated with the C3aR antagonist SB290157 (5 μM, 30 min), % of the control level (% of the control level) [10]: 16

More lines, now with the values behind:

Molecule | EC50 (nM) of ERK1/2 phosphorylation in HMDMs [4] [nM] | EC50 (nM) of ERK1/2 phosphorylation in CHO-C3aR cells [5] [nM] | EC50 (nM) of ERK1/2 phosphorylation in BMDMs [9] [nM] | EC50 [2] [nM] | also measured
CC(C)C[C@H](NC(=O)[C@H](C)NC(=O)[C@H](CO)NC(=O)[C@@H]1CCCN1C(=O)[C@@H]1CCCN1C(=O)[C@H](CCC(N)=O)NC(=O)[C@H](CC(C)C)NC(=O)[C@@H](N)[C@@H](C)O)C(=O)N[C@@H](CCCNC(=N)N)C(=O)N[C@@H](CCCNC(=N)N)C(=O)N[C@@H](CCCNC(=N)N)C(=O)N[C@@H](Cc1c[nH]cn1)C(=O)N[C@@H](Cc1ccc(O)cc1)C(=O)N[C@@H](Cc1c[nH]cn1)C(=O)N[C@@H](Cc1c[nH]cn1)C(=O)N[C@@H](C)C(=O)N[C@@H](CC(C)C)C(=O)N1CCC[C@H]1C(=O)N1CCC[C@H]1C(=O)N[C@@H](CO)C(=O)N[C@@H](CCCNC(=N)N)C(=O)O [hTLQP-21] |  |  |  | 401 | EC50 ([1]; estimated, read-out: estimated EC50 (pERK1/2), HMDM): 14800 nM; % C3a activity ± SE, CHO-C3aR [3]: 87.0 ± 3.5%
CC(C)C[C@H](NC(=O)[C@@H](N)[C@@H](C)O)C(=O)N[C@@H](CCC(N)=O)C(=O)N1CCC[C@H]1C(=O)N1CCC[C@H]1C(=O)N[C@@H](C)C(=O)N[C@@H](CO)C(=O)N[C@@H](CO)C(=O)N[C@@H](CCCNC(=N)N)C(=O)N[C@@H](CCCNC(=N)N)C(=O)N[C@@H](CCCNC(=N)N)C(=O)N[C@@H](Cc1c[nH]cn1)C(=O)N[C@@H](Cc1ccccc1)C(=O)N[C@@H](Cc1c[nH]cn1)C(=O)N[C@@H](Cc1c[nH]cn1)C(=O)N[C@@H](C)C(=O)N[C@@H](CC(C)C)C(=O)N1CCC[C@H]1C(=O)N1CCC[C@H]1C(=O)N[C@@H](C)C(=O)N[C@@H](CCCNC(=N)N)C(=O)O [mTLQP-21] |  |  |  | 96.5 | EC50 ([1]; primary human macrophages, 50,000/well, AlphaLISA p-ERK1/2, read-out: EC50 (pERK1/2), HMDM): 2850 nM; % C3a activity ± SE, CHO-C3aR [3]: 91.8 ± 2.7%
Human C3a (from UniProt P01024 672-748) (ligand) | 0.11 | 0.15 |  |  | relative efficacy of C3a-induced ERK signalling in CHO-K1 cells, fold baseline (fold baseline) [6]: 2.7; relative efficacy of C3a-induced ERK signalling in CHO-C3aR cells, fold baseline (fold baseline) [7]: 7.3; C3a-induced ERK signalling in HMDMs pre-treated with the C3aR antagonist SB290157, % of the untreated level (% of the untreated level) [8]: < 20
mC3a: Recombinant mouse C3a, purchased from R&D Systems |  |  |  | 8.4 | 
